Results: paper PMC5672800

Columns and labels:
[1] = target: mouse melanocortin-4 receptor (mouse) (UniProt P56450); experiment: radioligand binding
[2] = target: mouse melanocortin-3 receptor (mouse) (UniProt P33033); experiment: radioligand binding
[3] = target: mouse melanocortin-3 receptor (mouse) (UniProt P33033)
[4] = target: mouse melanocortin-5 receptor (mouse) (UniProt P41149)
[5] = target: mouse melanocortin-1 receptor (mouse) (UniProt Q01727)
Chain of mouse melanocortin-1 receptor (mouse) (Q01727 whole entry): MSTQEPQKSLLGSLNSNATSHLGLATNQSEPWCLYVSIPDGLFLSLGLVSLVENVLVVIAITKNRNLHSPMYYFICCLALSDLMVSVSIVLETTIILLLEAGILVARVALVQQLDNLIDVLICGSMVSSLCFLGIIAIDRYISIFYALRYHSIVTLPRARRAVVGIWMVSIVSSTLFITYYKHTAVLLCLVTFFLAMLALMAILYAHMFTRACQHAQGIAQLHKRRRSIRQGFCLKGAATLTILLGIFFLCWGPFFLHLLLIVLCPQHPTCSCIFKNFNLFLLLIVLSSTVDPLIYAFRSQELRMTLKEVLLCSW

Chain of mouse melanocortin-3 receptor (mouse) (P33033 whole entry): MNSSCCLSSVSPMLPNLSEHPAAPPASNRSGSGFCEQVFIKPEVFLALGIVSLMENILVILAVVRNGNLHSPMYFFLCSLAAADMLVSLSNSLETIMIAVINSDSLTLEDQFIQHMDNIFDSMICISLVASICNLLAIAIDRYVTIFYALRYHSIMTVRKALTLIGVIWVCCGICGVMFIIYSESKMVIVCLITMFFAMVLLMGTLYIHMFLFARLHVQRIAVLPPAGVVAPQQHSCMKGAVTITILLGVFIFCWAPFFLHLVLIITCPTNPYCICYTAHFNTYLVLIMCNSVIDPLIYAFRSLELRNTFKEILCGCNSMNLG
Chain of mouse melanocortin-5 receptor (mouse) (P41149 whole entry): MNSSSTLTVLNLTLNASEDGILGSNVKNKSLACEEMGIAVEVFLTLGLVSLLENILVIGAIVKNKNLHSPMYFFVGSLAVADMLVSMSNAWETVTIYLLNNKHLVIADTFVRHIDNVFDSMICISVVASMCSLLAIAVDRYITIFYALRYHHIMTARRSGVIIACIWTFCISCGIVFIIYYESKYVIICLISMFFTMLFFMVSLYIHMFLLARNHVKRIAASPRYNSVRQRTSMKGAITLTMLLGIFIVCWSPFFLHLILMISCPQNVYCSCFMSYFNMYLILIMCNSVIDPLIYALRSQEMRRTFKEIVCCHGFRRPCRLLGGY
Chain of mouse melanocortin-4 receptor (mouse) (P56450 whole entry): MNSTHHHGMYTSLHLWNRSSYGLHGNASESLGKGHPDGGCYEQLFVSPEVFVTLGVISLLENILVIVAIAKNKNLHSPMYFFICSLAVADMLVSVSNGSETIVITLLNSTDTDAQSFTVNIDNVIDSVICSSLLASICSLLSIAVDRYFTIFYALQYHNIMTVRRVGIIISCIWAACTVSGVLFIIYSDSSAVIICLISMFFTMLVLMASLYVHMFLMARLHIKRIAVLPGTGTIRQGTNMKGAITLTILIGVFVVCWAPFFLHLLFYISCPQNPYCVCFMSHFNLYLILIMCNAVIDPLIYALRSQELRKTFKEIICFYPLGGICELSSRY

IC50 [1]	IC50 [2]	cAMP AlphaScreen, HEK293 cells stably expressing the receptor: agonist EC50 [3]	cAMP AlphaScreen, HEK293 cells stably expressing the receptor: agonist EC50 [4]	cAMP AlphaScreen, HEK293 cells stably expressing the receptor: agonist EC50 [5]	Binder
455 nM	6.5 µM	540 nM	–	–	RRFF (HELM PEPTIDE1{[ac].R.R.[O=C([C@@H](Cc1ccc(I)cc1)N[*:1])[*:2]].F.[am]}$$$$V2.0; SMILES CC(=O)N[C@@H](CCCNC(=N)N)C(=O)N[C@@H](CCCNC(=N)N)C(=O)N[C@H](Cc1ccc(I)cc1)C(=O)N[C@@H](Cc1ccccc1)C(N)=O) [compound 25]
–	–	1100 nM	680 nM	92 nM	HRFF (HELM PEPTIDE1{[ac].H.R.[O=C([C@@H](Cc1ccc(I)cc1)N[*:1])[*:2]].F.[am]}$$$$V2.0; SMILES CC(=O)N[C@@H](Cc1c[nH]cn1)C(=O)N[C@@H](CCCNC(=N)N)C(=O)N[C@H](Cc1ccc(I)cc1)C(=O)N[C@@H](Cc1ccccc1)C(N)=O) [compound 26]
